In patent publication US20090036382A1, “TGF-Beta Modulators and Use Thereof” (Universita' Degli Studi Di Padova, priority 2006, published 2009):
“Also recorded” adds a separate entry of the source.

Columns and labels:
mature TGF-β1 = experiment: CAGA12-lux luciferase reporter in HEK293T cells treated with recombinant TGF-β1; type: cell-based; conditions: 5 ng/ml recombinant TGF-β1, expression vector 500 ng, FIG. 2B
Procedure: (§1) To verify how emilin or the EMI domain can contrast TGF-β1 activity independently from receptor binding, HEK293T cells were transfected with a construct coding luciferase placed under control of a TGF-β activated promoter: CAGA12-lux (Jonk et al., 1998) alone or in combination with a emilin1 expression vector (500 ng) as shown in FIG. 2B. After transfection, cells were treated (black bar) or not treated (white bar) with 5 ng/ml recombinant TGF-1 (lanes 1 and 2). Column bars from 3 to 6 report luciferase expression values in experiments with cells co-transfected with the expression vector for emilin1 (or EMI-domain or emilin1ΔEMI) alone (white bars) or in combination with the vector encoding pro TGF-β1 (black bars). Values show the mean±st. dev.

pro TGF-β1 = experiment: CAGA12-lux luciferase reporter in HEK293T cells co-transfected with pro TGF-β1 vector; type: cell-based, human; conditions: CAGA12-lux, co-transfection with pro TGF-β1 vector, FIG. 2B, 2C
From the text: • The construct for emilin 1 expression was engineered in pCS2 vector (Rupp R. A. et al., 1994, Genes Dev 8, 1311-1323) (for a physical map of the vector, see the site faculty.washington.edu/rtmoon/pcs2+.html) as described (Zanetti M. et al., 2004, Mol Cell Biol 24, 638-650); the vector used for proTGF-β expression in MEF and HEK293T cells is pCDNA3.1 (Invitrogen). Vectors containing the coding sequence for human pro TGF-β are described in Young and Murphy-Ullrich, 2004 (Young and Murphy-Ullrich, 2004, J Biol Chem 279, 38032-38039). The human pro TGF-β cDNA sequence is reported in the data bank (NP_000660; protein 000651). • The vector for Furin/SPC 1 expression is pCDNA3.1 (Invitrogen) • p15 and CAGA 12 promoter fragments are described in Jonk L. J. et al., 1998, J Biol Chem 273, 21145-21152 […]. • Constructs containing Flag sequences are described in Young G. D and Murphy-Ullrich J E, 2004, J Biol Chem 279, 38032-38039. • Constructs containing the Flag epitope (e.g. Flag-EMI-domain-GPI) were prepared as described in Chubet R G et al. Biotechniques 1996; 20(1):136-141 and detected by anti-Flag antibody (Kodak Inc.). • Constructs containing the GPI anchor were prepared as described in the Manual “Current Protocols in Cell Biology” Howard R. Petty Wayne State University, Detroit, Mich.; Juan S. Bonifacino, Mary Dasso, Joe B. Harford, Jennifer Lippincott-Schwartz, and Kenneth M. Yamada (eds.), Copyright C 2003 John Wiley & Sons, Inc. (GPI-anchor). In the construct Flag-EMI domain-GPI, the Flag sequence was inserted at the N-terminus after the signal peptide, while the GPI-anchor sequence was placed at the COOH-terminal end. • The construct emilin 1-KDEL was obtained by inserting the KDEL coding sequence described by Munro S., and Pelham, H. R., 1987, Cell 48, 899-907 upstream the emilin 1 STOP codon. • The construct containing the type II TGF-β receptor with HA epitope was described in Wrana J. L. et al., 1994, Nature 370, 341-347. • supplier of the drugs used: SP600125 (Calbiochem), SB431542 (Tocris). • Purified recombinant LAP and TGF-β1 proteins were purchased from (R&D Systems)
as §1
As further validation of the above observations, HEK293T cells were cotransfected with expression plasmids carrying the cDNAs shown in the summary scheme above the figure, along with CAGA12-lux and CMV-lacZ constructs, and luciferase expression levels were measured.

pro TGF-β = biological target: T1, pro TGF-β (Homo sapiens, UniProt P01137); experiment: Co-immunoprecipitation / Western blot of EMI domain or emilin1 with pro TGF-β in HEK293T cells; type: binding; conditions: HEK293T cell extracts or culture medium; anti-Flag / anti-LAP IP; FIG. 4A-4C
T1 construct: expressed in transfected cells; host or cells: HEK293T
T1 sequence (P01137 30-390): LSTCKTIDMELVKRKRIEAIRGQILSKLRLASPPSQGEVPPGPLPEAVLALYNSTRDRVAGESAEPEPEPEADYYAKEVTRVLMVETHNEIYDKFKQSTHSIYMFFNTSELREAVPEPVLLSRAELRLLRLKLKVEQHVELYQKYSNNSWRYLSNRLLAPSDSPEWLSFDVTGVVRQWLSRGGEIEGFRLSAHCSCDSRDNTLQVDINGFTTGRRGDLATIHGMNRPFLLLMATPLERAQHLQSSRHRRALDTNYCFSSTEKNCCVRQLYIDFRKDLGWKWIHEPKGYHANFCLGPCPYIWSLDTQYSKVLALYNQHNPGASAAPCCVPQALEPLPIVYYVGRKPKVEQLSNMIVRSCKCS
From the text: • The construct for emilin 1 expression was engineered in pCS2 vector (Rupp R. A. et al., 1994, Genes Dev 8, 1311-1323) (for a physical map of the vector, see the site faculty.washington.edu/rtmoon/pcs2+.html) as described (Zanetti M. et al., 2004, Mol Cell Biol 24, 638-650); the vector used for proTGF-β expression in MEF and HEK293T cells is pCDNA3.1 (Invitrogen). Vectors containing the coding sequence for human pro TGF-β are described in Young and Murphy-Ullrich, 2004 (Young and Murphy-Ullrich, 2004, J Biol Chem 279, 38032-38039). […]

Furin/SPC 1 = biological target: T2, Furin/SPC 1 (Homo sapiens, UniProt P09958); experiment: Western blot (anti-LAP) of pro TGF-β1 cleavage in HEK293T cells co-transfected with Furin/SPC 1; type: cell-based; conditions: HEK293T cell extracts, FIG. 5B
T2 construct: expressed in transfected cells; host or cells: HEK293T
T2 sequence (P09958 108-794): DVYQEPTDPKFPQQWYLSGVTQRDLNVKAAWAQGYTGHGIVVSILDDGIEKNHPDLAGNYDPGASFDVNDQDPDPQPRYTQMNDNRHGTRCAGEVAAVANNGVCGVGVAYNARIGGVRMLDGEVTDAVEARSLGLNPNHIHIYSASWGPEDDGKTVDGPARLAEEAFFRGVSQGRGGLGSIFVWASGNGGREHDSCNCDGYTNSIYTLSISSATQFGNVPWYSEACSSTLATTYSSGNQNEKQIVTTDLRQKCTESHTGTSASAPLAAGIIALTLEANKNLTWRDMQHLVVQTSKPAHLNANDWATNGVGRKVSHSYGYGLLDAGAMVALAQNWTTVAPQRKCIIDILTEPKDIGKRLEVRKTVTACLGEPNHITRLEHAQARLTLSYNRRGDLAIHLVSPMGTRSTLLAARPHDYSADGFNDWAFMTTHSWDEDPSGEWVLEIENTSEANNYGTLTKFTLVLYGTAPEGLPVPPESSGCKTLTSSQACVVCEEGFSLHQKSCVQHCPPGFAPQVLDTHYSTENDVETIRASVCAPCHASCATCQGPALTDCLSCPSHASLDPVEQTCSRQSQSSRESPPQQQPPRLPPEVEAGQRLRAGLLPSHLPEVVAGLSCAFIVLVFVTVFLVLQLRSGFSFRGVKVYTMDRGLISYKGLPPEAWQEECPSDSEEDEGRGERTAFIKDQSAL
From the text: To further investigate the role of emilin-1 on TGF-β processing, HEK293T cells were transfected with plasmids encoding pro TGF-β1, Furin/SPC 1 and EMI-domain, as shown in the scheme above FIG. 5B. Cell extracts were loaded on SDS-PAGE and detected by Western-blot with anti-LAP antibody.

Furin-induced proteolytic cleavage product of pro TGF-β1 (Furin/SPC 1): blocks the effect of Furin
B1: EMI domain: cysteine-rich domain of emilin-1, residues 55-131, SEQ ID NO 2; in some experiments Flag-tagged and GPI-anchored (protein)
chain: RHRNWCAYVVTRTVSCVLEDGVETYVKYQPCAWGQPQCPQSIMYRRFLRPRYRVAYKTVTDMEWRCCQGYGGDDCAE
modifications: sometimes Flag tag and GPI anchor; homo sapiens
notes: in some experiments Flag-tagged and GPI-anchored
Effect on luciferase expression induced by mature TGF-β (mature TGF-β1): does not antagonize mature TGF-β | Effect on luciferase expression induced by pro TGF-β1 (pro TGF-β1): inhibits pro TGF-β | Interaction with pro TGF-β (co-immunoprecipitation) (pro TGF-β): interacts specifically; also recorded: interacts only with the intact pro TGF-β molecule
